For this assay, the target named is T1, FtsQ (Escherichia coli, UniProt P06136 1-276).
T1 construct: FtsQ of Escherichia coli
Kind of assay: not stated; unpublished results (Luirink and den Blaauwen); method not given.

T1 sequence (P06136 whole entry): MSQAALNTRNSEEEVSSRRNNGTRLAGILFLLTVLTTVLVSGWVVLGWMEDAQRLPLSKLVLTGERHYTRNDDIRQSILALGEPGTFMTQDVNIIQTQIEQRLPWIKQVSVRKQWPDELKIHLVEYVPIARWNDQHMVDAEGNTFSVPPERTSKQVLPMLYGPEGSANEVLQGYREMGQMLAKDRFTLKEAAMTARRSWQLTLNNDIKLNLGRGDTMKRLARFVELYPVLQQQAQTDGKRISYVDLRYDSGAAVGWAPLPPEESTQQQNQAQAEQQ

B1: FtsB (natural protein, Escherichia coli, UniProt P0A6S5 1-103, looked up)
chain: MGKLTLLLLAILVWLQYSLWFGKNGIHDYTRVNDDVAAQQATNAKLKARNDQLFAEIDDLNGGQEALEERARNELSMTRPGETFYRLVPDASKRAQSAGQNNR
notes: FtsB of Escherichia coli
The stoichiometry N is a count of units in the complex or per binding partner. Take B1: the “stoichiometry N” value is 1.
